Source: the supplement of paper PMC10065799, “High-throughput profiling of sequence recognition by tyrosine kinases and SH2 domains using bacterial peptide display” (eLife, 2023)

Molecular target: Hck (UniProt P08631)
Test: phosphorylation enrichment, bacterial display (enrichment ratio); higher = better substrate or ligand; peptides without Tyr show the background
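Also: 11-residue human phosphosite peptides and single-mutation variants displayed on the E. coli surface, counted by deep sequencing, each peptide's frequency after selection divided by its frequency in the unselected input library; frequency after pTyr selection over input frequency; kinase dosed for 20-30% of maximal phosphorylation in three min.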

Sequence of Hck (P08631 whole entry, looked up): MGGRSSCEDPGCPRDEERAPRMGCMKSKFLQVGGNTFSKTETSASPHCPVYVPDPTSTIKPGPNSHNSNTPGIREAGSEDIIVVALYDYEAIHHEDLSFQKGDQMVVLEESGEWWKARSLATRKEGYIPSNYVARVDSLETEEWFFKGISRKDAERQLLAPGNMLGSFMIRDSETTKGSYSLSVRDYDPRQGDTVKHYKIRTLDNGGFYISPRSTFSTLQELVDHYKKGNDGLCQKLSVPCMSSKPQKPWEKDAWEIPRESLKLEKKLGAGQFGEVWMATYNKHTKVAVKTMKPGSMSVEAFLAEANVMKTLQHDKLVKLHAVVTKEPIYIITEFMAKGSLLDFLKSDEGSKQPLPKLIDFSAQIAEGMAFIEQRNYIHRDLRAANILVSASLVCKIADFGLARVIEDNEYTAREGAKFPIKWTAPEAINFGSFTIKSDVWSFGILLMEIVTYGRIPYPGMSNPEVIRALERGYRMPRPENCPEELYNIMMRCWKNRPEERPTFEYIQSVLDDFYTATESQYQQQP

Sequence | phosphorylation enrichment
TCRPPYYHRNC [HGD_Y333_F329C] | 0.218

Tested on: Fer (mouse)
Test: as above

Sequence | phosphorylation enrichment
AKRKNYAPVAM [CFAP47_Y557] | 0.302
FLQTDDTSQVS [FRMPD1_Y846_Y846D] | 0.49
RYVTRYIYNRE [HLA-DQB1_Y62] | 0.527
TGEKLYQHKEF [ZNF283_Y627_R629H] | 0.436
DFLSSYSAVNQ [OAT_Y85] | 1.17
PLQKTYNYNVL [SLC4A1_Y553] | 0.628
SAEEDYMADAK [KCNT1_Y876] | 0.632
LKALKYKSMKI [ITGA11_Y1098] | 0.452
LINSVYGCSRQ [TMPRSS6_Y290_T287N] | 0.863
FPHVISARLWR [SMAD4_Y95_Y95S] | 0.524
ELTSVYGSRAR [SENP1_Y349_D350G] | 0.424
YEREQYADRTR [RBM4_Y355_A359T] | 0.494
QKFMAYPSQGG [HLCS_Y236_L237P] | 0.654
LVMFIYAIFGM [SCN1A_Y1684] | 1.19
DGQVNYEEFVQ [CALM1_Y139] | 0.659
GSQERYFELVE [TSC2_Y407] | 0.541
FFRNVYHLASV [RBL1_Y796_K794N_YF] | 0.403
TKDTFYKQRMF [GBA_Y451_P454R] | 0.416
HKETGYVVERP [BCLAF1_Y466_L461H] | 0.439
PTTKTYLPHFD [HBA1_Y43_F44L] | 0.386
YRDALYKSMVD [PHEX_Y250_F252S] | 0.421
GVIRHYVVCST [BTK_Y334] | 0.566
SIKGKYVTALF [KCNH2_Y611_D609G_YF] | 0.525
GLGGGYGGASG [KRT8_Y54] | 0.348
TKYVAYIESQG [KDM4B_Y34_N29T] | 0.432
NVTGHYIPPFH [PPA2_Y59_S61P] | 0.395
LKSEMYQKLFK [RGS13_Y146_L150F] | 0.596
GTTIHYNYMCN [TP53_Y234_C229G] | 0.656
TCRPPYYHRNC [HGD_Y333_F329C] | 0.233

Molecular target: Jak2 (UniProt O60674)
Test: as above

Sequence of Jak2 (O60674 whole entry, looked up): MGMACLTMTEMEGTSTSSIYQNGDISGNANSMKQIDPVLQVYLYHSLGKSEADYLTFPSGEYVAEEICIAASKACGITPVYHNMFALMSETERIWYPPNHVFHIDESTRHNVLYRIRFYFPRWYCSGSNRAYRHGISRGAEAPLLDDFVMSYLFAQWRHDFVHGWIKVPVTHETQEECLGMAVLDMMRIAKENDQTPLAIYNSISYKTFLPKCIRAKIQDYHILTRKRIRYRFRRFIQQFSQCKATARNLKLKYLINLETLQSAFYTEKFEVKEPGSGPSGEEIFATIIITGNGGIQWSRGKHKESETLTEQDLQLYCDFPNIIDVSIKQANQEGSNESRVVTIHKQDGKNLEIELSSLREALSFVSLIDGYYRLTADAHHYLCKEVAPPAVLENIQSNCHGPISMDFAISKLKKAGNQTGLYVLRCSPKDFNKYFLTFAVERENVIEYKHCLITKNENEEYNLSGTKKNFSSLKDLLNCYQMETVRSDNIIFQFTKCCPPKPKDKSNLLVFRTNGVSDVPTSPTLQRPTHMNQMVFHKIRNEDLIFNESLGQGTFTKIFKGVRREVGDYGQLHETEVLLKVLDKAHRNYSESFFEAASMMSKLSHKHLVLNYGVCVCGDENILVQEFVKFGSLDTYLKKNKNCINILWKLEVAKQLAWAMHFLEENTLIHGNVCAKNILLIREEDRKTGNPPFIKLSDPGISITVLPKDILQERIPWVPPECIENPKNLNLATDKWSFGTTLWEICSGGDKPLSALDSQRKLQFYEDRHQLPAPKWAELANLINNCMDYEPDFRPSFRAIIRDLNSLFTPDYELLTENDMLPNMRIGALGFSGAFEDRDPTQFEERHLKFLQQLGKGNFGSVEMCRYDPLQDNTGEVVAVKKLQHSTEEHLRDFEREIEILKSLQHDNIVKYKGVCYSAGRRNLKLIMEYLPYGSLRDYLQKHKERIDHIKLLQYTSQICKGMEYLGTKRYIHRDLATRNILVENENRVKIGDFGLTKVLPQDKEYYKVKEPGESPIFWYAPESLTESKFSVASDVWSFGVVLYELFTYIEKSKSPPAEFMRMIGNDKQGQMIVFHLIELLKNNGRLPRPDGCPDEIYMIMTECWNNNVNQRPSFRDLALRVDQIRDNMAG

Sequence | phosphorylation enrichment
AKRKNYAPVAM [CFAP47_Y557] | 0.341
FLQTDDTSQVS [FRMPD1_Y846_Y846D] | 0.99
RYVTRYIYNRE [HLA-DQB1_Y62] | 1.26
TGEKLYQHKEF [ZNF283_Y627_R629H] | 0.599
DFLSSYSAVNQ [OAT_Y85] | 0.997
PLQKTYNYNVL [SLC4A1_Y553] | 0.986
SAEEDYMADAK [KCNT1_Y876] | 1.25
LKALKYKSMKI [ITGA11_Y1098] | 0.735
LINSVYGCSRQ [TMPRSS6_Y290_T287N] | 1.82
FPHVISARLWR [SMAD4_Y95_Y95S] | 0.805
ELTSVYGSRAR [SENP1_Y349_D350G] | 0.538
YEREQYADRTR [RBM4_Y355_A359T] | 0.603
QKFMAYPSQGG [HLCS_Y236_L237P] | 1.2
LVMFIYAIFGM [SCN1A_Y1684] | 1.94
DGQVNYEEFVQ [CALM1_Y139] | 1.2
GSQERYFELVE [TSC2_Y407] | 1.17
FFRNVYHLASV [RBL1_Y796_K794N_YF] | 0.575
TKDTFYKQRMF [GBA_Y451_P454R] | 0.404
HKETGYVVERP [BCLAF1_Y466_L461H] | 1.14
PTTKTYLPHFD [HBA1_Y43_F44L] | 0.456
YRDALYKSMVD [PHEX_Y250_F252S] | 0.717
GVIRHYVVCST [BTK_Y334] | 1.12
SIKGKYVTALF [KCNH2_Y611_D609G_YF] | 0.77
GLGGGYGGASG [KRT8_Y54] | 0.379
TKYVAYIESQG [KDM4B_Y34_N29T] | 0.498
NVTGHYIPPFH [PPA2_Y59_S61P] | 0.498
LKSEMYQKLFK [RGS13_Y146_L150F] | 1.77
GTTIHYNYMCN [TP53_Y234_C229G] | 1.22
TCRPPYYHRNC [HGD_Y333_F329C] | 0.162

Molecular target: Fes (UniProt P07332)
Test: as above

Sequence of Fes (P07332 whole entry, looked up): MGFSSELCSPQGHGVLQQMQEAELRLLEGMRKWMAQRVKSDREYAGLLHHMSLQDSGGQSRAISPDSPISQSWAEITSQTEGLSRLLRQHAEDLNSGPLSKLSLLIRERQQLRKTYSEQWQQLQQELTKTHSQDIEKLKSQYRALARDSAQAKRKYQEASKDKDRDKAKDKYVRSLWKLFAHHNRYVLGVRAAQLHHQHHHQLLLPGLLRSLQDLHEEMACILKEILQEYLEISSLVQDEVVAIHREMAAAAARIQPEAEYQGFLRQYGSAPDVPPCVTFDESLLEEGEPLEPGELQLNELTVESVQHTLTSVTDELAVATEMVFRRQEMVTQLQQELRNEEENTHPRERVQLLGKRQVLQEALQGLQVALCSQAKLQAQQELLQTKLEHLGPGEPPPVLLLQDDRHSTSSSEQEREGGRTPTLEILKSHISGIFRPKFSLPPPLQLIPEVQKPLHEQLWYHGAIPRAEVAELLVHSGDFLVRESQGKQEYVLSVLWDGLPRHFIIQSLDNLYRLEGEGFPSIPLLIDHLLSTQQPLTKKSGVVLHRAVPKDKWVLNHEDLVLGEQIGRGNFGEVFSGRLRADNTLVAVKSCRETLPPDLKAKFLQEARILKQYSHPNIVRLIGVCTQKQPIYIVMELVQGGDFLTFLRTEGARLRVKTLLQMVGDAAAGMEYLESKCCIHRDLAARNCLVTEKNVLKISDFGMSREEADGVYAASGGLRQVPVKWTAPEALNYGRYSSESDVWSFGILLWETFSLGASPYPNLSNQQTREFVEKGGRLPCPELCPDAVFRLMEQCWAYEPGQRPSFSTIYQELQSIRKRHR

Sequence | phosphorylation enrichment
AKRKNYAPVAM [CFAP47_Y557] | 0.521
FLQTDDTSQVS [FRMPD1_Y846_Y846D] | 1.12
RYVTRYIYNRE [HLA-DQB1_Y62] | 1.18
TGEKLYQHKEF [ZNF283_Y627_R629H] | 0.679
DFLSSYSAVNQ [OAT_Y85] | 0.947
PLQKTYNYNVL [SLC4A1_Y553] | 1.08
SAEEDYMADAK [KCNT1_Y876] | 1.36
LKALKYKSMKI [ITGA11_Y1098] | 0.701
LINSVYGCSRQ [TMPRSS6_Y290_T287N] | 1.57
FPHVISARLWR [SMAD4_Y95_Y95S] | 0.962
ELTSVYGSRAR [SENP1_Y349_D350G] | 0.633
YEREQYADRTR [RBM4_Y355_A359T] | 0.706
QKFMAYPSQGG [HLCS_Y236_L237P] | 0.886
LVMFIYAIFGM [SCN1A_Y1684] | 1.88
DGQVNYEEFVQ [CALM1_Y139] | 1.42
GSQERYFELVE [TSC2_Y407] | 1.27
FFRNVYHLASV [RBL1_Y796_K794N_YF] | 0.763
TKDTFYKQRMF [GBA_Y451_P454R] | 0.579
HKETGYVVERP [BCLAF1_Y466_L461H] | 1.36
PTTKTYLPHFD [HBA1_Y43_F44L] | 0.77
YRDALYKSMVD [PHEX_Y250_F252S] | 0.856
GVIRHYVVCST [BTK_Y334] | 1.25
SIKGKYVTALF [KCNH2_Y611_D609G_YF] | 0.798
GLGGGYGGASG [KRT8_Y54] | 0.534
TKYVAYIESQG [KDM4B_Y34_N29T] | 0.828
NVTGHYIPPFH [PPA2_Y59_S61P] | 0.679
LKSEMYQKLFK [RGS13_Y146_L150F] | 0.993
GTTIHYNYMCN [TP53_Y234_C229G] | 1.37
TCRPPYYHRNC [HGD_Y333_F329C] | 0.713

Molecular target: FGFR1 (UniProt P11362)
Test: as above

Sequence of FGFR1 (P11362 whole entry, looked up): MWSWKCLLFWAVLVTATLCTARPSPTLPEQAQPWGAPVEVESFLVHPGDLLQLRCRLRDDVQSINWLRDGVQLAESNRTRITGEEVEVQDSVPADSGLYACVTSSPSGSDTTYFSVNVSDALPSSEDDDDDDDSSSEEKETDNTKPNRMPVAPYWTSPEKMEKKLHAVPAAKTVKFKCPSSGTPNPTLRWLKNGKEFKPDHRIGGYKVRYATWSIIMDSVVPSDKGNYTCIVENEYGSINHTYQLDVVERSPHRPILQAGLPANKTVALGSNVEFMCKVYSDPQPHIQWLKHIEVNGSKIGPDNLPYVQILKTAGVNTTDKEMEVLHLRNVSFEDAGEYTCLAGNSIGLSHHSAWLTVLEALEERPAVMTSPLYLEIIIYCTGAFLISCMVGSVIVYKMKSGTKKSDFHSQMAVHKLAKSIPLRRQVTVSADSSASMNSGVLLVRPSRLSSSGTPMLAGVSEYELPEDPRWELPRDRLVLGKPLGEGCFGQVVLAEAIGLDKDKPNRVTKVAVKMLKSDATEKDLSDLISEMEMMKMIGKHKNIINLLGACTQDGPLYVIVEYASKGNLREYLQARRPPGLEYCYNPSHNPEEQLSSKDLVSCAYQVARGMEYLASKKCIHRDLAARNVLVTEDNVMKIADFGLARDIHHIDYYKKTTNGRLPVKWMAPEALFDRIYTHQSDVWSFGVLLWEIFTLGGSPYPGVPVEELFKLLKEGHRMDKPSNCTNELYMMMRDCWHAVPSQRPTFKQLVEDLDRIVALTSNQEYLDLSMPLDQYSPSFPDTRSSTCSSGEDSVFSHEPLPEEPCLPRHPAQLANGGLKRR

Sequence | phosphorylation enrichment
AKRKNYAPVAM [CFAP47_Y557] | 0.654
FLQTDDTSQVS [FRMPD1_Y846_Y846D] | 0.445
RYVTRYIYNRE [HLA-DQB1_Y62] | 0.681
TGEKLYQHKEF [ZNF283_Y627_R629H] | 0.418
DFLSSYSAVNQ [OAT_Y85] | 0.433
PLQKTYNYNVL [SLC4A1_Y553] | 0.711
SAEEDYMADAK [KCNT1_Y876] | 0.634
LKALKYKSMKI [ITGA11_Y1098] | 0.225
LINSVYGCSRQ [TMPRSS6_Y290_T287N] | 1.02
FPHVISARLWR [SMAD4_Y95_Y95S] | 0.477
ELTSVYGSRAR [SENP1_Y349_D350G] | 0.41
YEREQYADRTR [RBM4_Y355_A359T] | 0.566
QKFMAYPSQGG [HLCS_Y236_L237P] | 0.512
LVMFIYAIFGM [SCN1A_Y1684] | 0.952
DGQVNYEEFVQ [CALM1_Y139] | 0.608
GSQERYFELVE [TSC2_Y407] | 0.947
FFRNVYHLASV [RBL1_Y796_K794N_YF] | 0.486
TKDTFYKQRMF [GBA_Y451_P454R] | 0.41
HKETGYVVERP [BCLAF1_Y466_L461H] | 0.582
PTTKTYLPHFD [HBA1_Y43_F44L] | 0.508
YRDALYKSMVD [PHEX_Y250_F252S] | 0.458
GVIRHYVVCST [BTK_Y334] | 0.555
SIKGKYVTALF [KCNH2_Y611_D609G_YF] | 0.361
GLGGGYGGASG [KRT8_Y54] | 0.398
TKYVAYIESQG [KDM4B_Y34_N29T] | 0.541
NVTGHYIPPFH [PPA2_Y59_S61P] | 0.396
LKSEMYQKLFK [RGS13_Y146_L150F] | 0.715
GTTIHYNYMCN [TP53_Y234_C229G] | 0.619
